Measurements published in article PMC7019770.

Target: Mab2-5G2, monoclonal anti-idiotypic antibody recognizing an antibody that specifically interacts with PRRSV glycoprotein 5 (GP5)
Assay: ELISA
Details: chain shown with the change; Mab2-5G2 as plate-coating protein; anti-PRA rabbit serum for detection; parent: est. 1.6; read off a plot

Binder	response
PRA, C-terminal domain of MYH9 (recombinant, wild type) K1673A (protein) MRELEDTRASREEILAQAKENEAKLKSMEAEMIQLQEELAAAERAKRQAQQERDELADEIANSSGKGALALEEKRRLEARIAQLEEELEEEQGNTELVNDRLKKANLQIDQINTDLNLERSHAQKNENARQQLERQNKELKVKLQEMEGTVKSKYKASIAALEAKIAQLEEQLDNETKERQAACKQVRRAEKKLKDVLLQVDDERRNAEQYKDQADKASTRLKQLKRQLEEAEEEAQRANASRRKLQRELEDATETADAMNREVSSLKNKLRRGDLPFVVPRRMGRKGAGDCSDEEVDGKADGAEAKAAE	0.4 OD450
PRA, C-terminal domain of MYH9 (recombinant, wild type) E1679A (protein) MRELEDTRASREEILAQAKENEKKLKSMAAEMIQLQEELAAAERAKRQAQQERDELADEIANSSGKGALALEEKRRLEARIAQLEEELEEEQGNTELVNDRLKKANLQIDQINTDLNLERSHAQKNENARQQLERQNKELKVKLQEMEGTVKSKYKASIAALEAKIAQLEEQLDNETKERQAACKQVRRAEKKLKDVLLQVDDERRNAEQYKDQADKASTRLKQLKRQLEEAEEEAQRANASRRKLQRELEDATETADAMNREVSSLKNKLRRGDLPFVVPRRMGRKGAGDCSDEEVDGKADGAEAKAAE	0.36 OD450
PRA, C-terminal domain of MYH9 (recombinant, wild type) I1683A (protein) MRELEDTRASREEILAQAKENEKKLKSMEAEMAQLQEELAAAERAKRQAQQERDELADEIANSSGKGALALEEKRRLEARIAQLEEELEEEQGNTELVNDRLKKANLQIDQINTDLNLERSHAQKNENARQQLERQNKELKVKLQEMEGTVKSKYKASIAALEAKIAQLEEQLDNETKERQAACKQVRRAEKKLKDVLLQVDDERRNAEQYKDQADKASTRLKQLKRQLEEAEEEAQRANASRRKLQRELEDATETADAMNREVSSLKNKLRRGDLPFVVPRRMGRKGAGDCSDEEVDGKADGAEAKAAE	0.61 OD450
PRA, C-terminal domain of MYH9 (recombinant, wild type) E1670A (protein) MRELEDTRASREEILAQAKANEKKLKSMEAEMIQLQEELAAAERAKRQAQQERDELADEIANSSGKGALALEEKRRLEARIAQLEEELEEEQGNTELVNDRLKKANLQIDQINTDLNLERSHAQKNENARQQLERQNKELKVKLQEMEGTVKSKYKASIAALEAKIAQLEEQLDNETKERQAACKQVRRAEKKLKDVLLQVDDERRNAEQYKDQADKASTRLKQLKRQLEEAEEEAQRANASRRKLQRELEDATETADAMNREVSSLKNKLRRGDLPFVVPRRMGRKGAGDCSDEEVDGKADGAEAKAAE	0.46 OD450
PRA, C-terminal domain of MYH9 (recombinant, wild type) E1670A; K1673A; E1679A; I1683A (protein) MRELEDTRASREEILAQAKANEAKLKSMAAEMAQLQEELAAAERAKRQAQQERDELADEIANSSGKGALALEEKRRLEARIAQLEEELEEEQGNTELVNDRLKKANLQIDQINTDLNLERSHAQKNENARQQLERQNKELKVKLQEMEGTVKSKYKASIAALEAKIAQLEEQLDNETKERQAACKQVRRAEKKLKDVLLQVDDERRNAEQYKDQADKASTRLKQLKRQLEEAEEEAQRANASRRKLQRELEDATETADAMNREVSSLKNKLRRGDLPFVVPRRMGRKGAGDCSDEEVDGKADGAEAKAAE	0.41 OD450
